# According to the supplement of paper PMC10065799, “High-throughput profiling of sequence recognition by tyrosine kinases and SH2 domains using bacterial peptide display” (eLife, 2023):
# What was measured:
# EPHB2 = EPHB2 (UniProt P29323); assay: phosphorylation enrichment, bacterial display (enrichment ratio); higher = better substrate or ligand; peptides without Tyr show the background
# FGFR1 = FGFR1 (UniProt P11362); assay: as above
# FGFR3 = FGFR3 (UniProt P22607); assay: as above
# AncSZ = assay: as above
# Hck = Hck (UniProt P08631); assay: as above
# Hck, sequence (P08631 whole entry, looked up): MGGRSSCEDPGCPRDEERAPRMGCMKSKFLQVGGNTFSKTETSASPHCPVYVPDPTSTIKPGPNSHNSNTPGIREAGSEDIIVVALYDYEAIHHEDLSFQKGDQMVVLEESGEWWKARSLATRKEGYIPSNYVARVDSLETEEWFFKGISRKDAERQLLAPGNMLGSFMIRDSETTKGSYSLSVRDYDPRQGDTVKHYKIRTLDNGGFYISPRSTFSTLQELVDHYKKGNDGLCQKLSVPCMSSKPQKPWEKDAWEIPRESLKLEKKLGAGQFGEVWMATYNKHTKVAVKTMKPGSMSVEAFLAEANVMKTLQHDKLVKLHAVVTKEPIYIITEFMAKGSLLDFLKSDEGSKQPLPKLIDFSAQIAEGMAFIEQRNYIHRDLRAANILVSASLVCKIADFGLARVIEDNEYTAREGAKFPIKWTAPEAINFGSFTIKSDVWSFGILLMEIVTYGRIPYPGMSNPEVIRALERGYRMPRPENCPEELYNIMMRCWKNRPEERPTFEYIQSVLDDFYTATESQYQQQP
# EPHB1 = EPHB1 (UniProt P54762); assay: as above
# EPHB1, sequence (P54762 whole entry, looked up): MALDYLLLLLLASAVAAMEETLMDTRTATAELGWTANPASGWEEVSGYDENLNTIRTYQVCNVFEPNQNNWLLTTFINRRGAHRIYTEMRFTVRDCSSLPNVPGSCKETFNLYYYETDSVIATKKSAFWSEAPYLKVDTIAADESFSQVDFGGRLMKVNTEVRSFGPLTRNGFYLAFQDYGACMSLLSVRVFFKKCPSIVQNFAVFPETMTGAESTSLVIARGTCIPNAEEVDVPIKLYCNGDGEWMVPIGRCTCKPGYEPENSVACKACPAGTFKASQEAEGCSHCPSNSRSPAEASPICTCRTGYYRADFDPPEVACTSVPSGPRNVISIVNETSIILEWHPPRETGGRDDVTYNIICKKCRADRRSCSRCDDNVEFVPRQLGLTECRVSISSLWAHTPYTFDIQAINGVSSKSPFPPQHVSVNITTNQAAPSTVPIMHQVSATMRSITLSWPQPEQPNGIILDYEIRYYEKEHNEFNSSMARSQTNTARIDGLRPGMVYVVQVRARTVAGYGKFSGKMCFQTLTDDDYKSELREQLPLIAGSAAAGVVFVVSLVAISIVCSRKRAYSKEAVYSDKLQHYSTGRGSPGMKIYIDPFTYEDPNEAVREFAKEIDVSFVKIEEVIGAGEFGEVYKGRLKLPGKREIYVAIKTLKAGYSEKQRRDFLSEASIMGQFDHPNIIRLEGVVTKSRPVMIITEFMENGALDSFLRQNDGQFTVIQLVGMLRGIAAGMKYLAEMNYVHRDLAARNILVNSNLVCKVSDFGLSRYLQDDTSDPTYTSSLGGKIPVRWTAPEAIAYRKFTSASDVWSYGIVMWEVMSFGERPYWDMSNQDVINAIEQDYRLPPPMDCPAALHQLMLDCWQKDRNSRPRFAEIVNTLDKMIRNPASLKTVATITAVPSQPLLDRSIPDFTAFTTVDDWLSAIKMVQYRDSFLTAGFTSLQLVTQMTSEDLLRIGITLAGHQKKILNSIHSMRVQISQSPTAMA
# Jak2 = Jak2 (UniProt O60674); assay: as above
# Fer (mouse) = assay: as above
# MERTK = MERTK (UniProt Q12866); assay: as above
# MERTK, sequence (Q12866 whole entry, looked up): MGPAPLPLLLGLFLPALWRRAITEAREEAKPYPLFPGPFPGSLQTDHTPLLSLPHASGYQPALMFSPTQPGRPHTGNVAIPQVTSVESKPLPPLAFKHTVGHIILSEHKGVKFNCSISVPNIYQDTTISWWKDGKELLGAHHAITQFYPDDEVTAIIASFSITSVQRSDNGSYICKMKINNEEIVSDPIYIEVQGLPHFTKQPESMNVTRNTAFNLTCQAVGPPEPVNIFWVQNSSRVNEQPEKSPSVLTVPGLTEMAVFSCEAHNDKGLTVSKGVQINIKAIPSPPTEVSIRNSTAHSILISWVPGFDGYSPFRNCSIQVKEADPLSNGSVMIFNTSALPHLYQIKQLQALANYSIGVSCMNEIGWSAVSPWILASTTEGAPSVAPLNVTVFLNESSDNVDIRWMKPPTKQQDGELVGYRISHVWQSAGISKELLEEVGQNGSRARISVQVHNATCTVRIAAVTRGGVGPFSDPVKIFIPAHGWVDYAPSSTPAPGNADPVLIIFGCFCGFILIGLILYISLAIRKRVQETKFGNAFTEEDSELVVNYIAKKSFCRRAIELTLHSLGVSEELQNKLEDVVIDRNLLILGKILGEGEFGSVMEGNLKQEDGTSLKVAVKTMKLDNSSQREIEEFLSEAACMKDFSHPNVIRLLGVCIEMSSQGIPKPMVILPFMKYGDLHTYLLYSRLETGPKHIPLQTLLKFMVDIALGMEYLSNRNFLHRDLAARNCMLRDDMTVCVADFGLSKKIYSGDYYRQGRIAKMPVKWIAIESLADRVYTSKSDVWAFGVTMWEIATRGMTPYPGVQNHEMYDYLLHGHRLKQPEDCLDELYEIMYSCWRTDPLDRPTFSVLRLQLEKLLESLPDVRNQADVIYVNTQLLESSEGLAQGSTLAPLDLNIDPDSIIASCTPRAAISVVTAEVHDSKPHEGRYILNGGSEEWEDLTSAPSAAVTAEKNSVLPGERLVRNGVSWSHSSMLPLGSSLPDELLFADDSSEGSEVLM
# c-Src = assay: as above
# Fes = Fes (UniProt P07332); assay: as above
# Fyn = Fyn (UniProt P06241); assay: as above
# Fyn, sequence (P06241 whole entry, looked up): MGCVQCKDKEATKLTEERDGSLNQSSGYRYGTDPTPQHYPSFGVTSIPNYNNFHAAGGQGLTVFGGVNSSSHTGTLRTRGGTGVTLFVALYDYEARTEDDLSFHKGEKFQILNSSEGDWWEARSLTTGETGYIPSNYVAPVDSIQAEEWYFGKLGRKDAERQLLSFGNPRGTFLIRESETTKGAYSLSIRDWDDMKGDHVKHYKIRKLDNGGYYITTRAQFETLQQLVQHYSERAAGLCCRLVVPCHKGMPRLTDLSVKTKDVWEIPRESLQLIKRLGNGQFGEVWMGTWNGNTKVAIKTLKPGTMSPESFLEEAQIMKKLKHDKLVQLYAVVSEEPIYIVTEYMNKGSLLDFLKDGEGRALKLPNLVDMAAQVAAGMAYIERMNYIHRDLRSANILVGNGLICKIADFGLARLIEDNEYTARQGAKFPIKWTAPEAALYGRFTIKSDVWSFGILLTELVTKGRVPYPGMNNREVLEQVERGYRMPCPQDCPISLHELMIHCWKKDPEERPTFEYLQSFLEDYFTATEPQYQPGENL
# c-Abl (mouse) = assay: as above
# SHP2-C SH2 = assay: SH2 binding enrichment of the phosphorylated peptide, bacterial display (enrichment ratio); higher = better substrate or ligand; peptides without Tyr show the background
# Grb2 SH2 = Grb2 SH2 (UniProt P62993); assay: as above
# c-Src SH2 = assay: as above
# 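Wherever SH2 binding enrichment of the phosphorylated peptide, bacterial display is given: peptide library displayed on the E. coli surface as eCPX fusions, selected cells deep-sequenced, score is each peptide's frequency after selection divided by its frequency in the input.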
# 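Wherever phosphorylation enrichment, bacterial display is given: 11-residue human phosphosite peptides and single-mutation variants displayed on the E. coli surface, counted by deep sequencing, each peptide's frequency after selection divided by its frequency in the unselected input library; frequency after pTyr selection over input frequency; kinase dosed for 20-30% of maximal phosphorylation in three min.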
# EPHB2, sequence (P29323 whole entry, looked up): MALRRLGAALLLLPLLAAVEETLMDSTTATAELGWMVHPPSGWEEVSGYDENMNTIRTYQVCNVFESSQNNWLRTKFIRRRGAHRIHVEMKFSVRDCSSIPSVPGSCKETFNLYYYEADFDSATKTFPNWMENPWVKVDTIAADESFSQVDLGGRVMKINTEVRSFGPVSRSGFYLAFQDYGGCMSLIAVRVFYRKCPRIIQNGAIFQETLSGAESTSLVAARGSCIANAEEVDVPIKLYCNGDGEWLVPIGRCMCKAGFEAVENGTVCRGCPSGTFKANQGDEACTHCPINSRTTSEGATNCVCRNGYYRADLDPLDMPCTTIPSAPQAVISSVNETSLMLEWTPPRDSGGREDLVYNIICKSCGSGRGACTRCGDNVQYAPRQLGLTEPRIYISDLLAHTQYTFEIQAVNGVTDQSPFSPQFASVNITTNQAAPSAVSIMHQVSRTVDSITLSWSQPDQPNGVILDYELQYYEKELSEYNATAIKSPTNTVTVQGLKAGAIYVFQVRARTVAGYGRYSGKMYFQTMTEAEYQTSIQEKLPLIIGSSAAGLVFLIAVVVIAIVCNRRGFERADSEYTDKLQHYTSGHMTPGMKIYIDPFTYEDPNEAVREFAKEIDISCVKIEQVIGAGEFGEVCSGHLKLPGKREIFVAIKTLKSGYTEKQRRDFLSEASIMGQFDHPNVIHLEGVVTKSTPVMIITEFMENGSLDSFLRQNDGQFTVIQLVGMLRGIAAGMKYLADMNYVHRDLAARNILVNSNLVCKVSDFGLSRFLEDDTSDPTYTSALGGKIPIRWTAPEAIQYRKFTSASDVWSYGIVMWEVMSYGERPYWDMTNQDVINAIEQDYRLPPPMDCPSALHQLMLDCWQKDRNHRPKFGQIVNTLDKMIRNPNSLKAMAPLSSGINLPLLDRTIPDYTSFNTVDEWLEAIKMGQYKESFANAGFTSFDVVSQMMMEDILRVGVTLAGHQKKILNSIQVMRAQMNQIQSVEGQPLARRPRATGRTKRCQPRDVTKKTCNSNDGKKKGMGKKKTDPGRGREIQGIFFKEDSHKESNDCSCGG
# FGFR1, sequence (P11362 whole entry, looked up): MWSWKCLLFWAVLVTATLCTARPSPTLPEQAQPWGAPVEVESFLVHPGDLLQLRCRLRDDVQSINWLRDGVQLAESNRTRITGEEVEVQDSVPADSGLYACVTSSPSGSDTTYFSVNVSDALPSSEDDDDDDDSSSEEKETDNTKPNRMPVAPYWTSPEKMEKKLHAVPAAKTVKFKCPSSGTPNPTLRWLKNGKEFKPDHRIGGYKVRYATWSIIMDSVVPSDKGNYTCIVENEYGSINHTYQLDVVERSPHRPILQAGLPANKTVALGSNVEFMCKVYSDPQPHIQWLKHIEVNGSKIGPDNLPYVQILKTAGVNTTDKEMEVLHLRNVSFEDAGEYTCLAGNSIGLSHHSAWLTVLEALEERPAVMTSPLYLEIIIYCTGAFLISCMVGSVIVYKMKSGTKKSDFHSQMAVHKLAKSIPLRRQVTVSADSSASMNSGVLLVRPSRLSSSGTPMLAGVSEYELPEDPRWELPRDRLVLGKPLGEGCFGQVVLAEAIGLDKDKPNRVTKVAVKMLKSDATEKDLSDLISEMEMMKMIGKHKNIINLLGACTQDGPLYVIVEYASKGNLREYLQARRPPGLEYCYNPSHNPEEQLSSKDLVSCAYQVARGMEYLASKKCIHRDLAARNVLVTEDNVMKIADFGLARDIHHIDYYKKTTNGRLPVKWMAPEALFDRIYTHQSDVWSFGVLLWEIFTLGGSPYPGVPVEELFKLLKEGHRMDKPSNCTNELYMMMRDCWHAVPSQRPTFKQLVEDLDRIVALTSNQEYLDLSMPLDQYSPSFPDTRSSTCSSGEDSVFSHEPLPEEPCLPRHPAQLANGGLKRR
Sequence,SH2 binding enrichment (SHP2-C SH2),SH2 binding enrichment (Grb2 SH2),SH2 binding enrichment (c-Src SH2),phosphorylation enrichment (EPHB2),phosphorylation enrichment (FGFR1),phosphorylation enrichment (FGFR3),phosphorylation enrichment (AncSZ),phosphorylation enrichment (Hck),phosphorylation enrichment (EPHB1),phosphorylation enrichment (Jak2),phosphorylation enrichment (Fer (mouse)),phosphorylation enrichment (MERTK),phosphorylation enrichment (c-Src),phosphorylation enrichment (Fes),phosphorylation enrichment (Fyn),phosphorylation enrichment (c-Abl (mouse))
DGTGHYLCNAC [GATA5_Y208],0.658,0.83,0.45,0.445,0.456,0.416,0.625,0.45,0.61,0.681,0.458,0.398,0.421,0.763,0.396,0.595
DGTGHYLGNAC [GATA5_Y208_C210G],0.561,0.966,0.492,0.456,0.421,0.474,0.624,0.399,0.471,0.548,0.4,0.357,0.311,0.727,0.347,0.554
DLAGRYFALKS [CKB_Y173_YF],0.688,1.38,0.585,0.574,0.412,0.613,0.633,0.453,0.487,1.57,0.37,0.558,0.545,0.848,0.433,1.49
DLSEVYKPCRK [CCDC93_Y176_R179C],0.853,0.963,0.528,0.532,0.53,0.668,0.847,0.506,0.483,0.829,0.453,0.419,0.405,0.935,0.451,0.729
DMDATYRPMFS [JUP_Y701_YF],0.886,0.762,0.472,0.448,0.498,0.649,0.831,0.762,0.52,0.752,0.465,0.461,0.624,0.99,0.592,0.763
DNLSNYVFQGQ [GRIN2A_Y978_N976S],0.818,0.904,0.601,1.22,0.571,0.611,0.71,0.41,2.09,0.783,0.416,0.618,0.454,0.796,0.475,0.546
DPADRYLTEQY [CDKL5_Y286_C291Y],0.944,1,0.429,0.487,0.454,0.597,0.899,0.497,0.398,0.965,0.39,0.402,0.477,1.15,0.478,0.806
DQVEQYNKELE [LMNA_Y259_K260N],0.81,0.882,0.441,0.672,0.552,0.762,1.09,0.581,0.683,1.17,0.494,0.418,0.459,1.23,0.558,0.692
DRFDNYIEKVR [DES_Y122_A120D],0.596,0.836,0.507,0.433,0.539,0.604,0.709,0.413,0.348,0.755,0.408,0.406,0.421,0.774,0.432,0.583
DRIVNYSRASV [ATP7A_Y1459_I1464V],0.706,0.766,0.533,0.438,0.467,0.535,0.702,0.45,0.482,0.732,0.449,0.574,0.468,0.79,0.423,0.563
DRKRQYELLKL [KIF4B_Y684],1.04,1.17,1.49,0.462,0.331,0.576,0.682,0.488,0.44,0.876,0.421,0.4,0.395,0.758,0.392,0.545
DRPASYLDKVR [KRT17_Y98_L95P],0.664,0.828,0.502,0.396,0.465,0.456,0.674,0.432,0.446,0.556,0.405,0.51,0.474,0.636,0.398,0.624
DTNIAYCLHPR [POMT1_Y581_W582C],0.744,0.712,0.609,0.532,0.471,0.691,0.831,0.431,0.549,0.754,0.505,0.695,0.568,1.06,0.541,0.753
DVCKNYAKAKD [ALB_Y343_E345K],0.956,1.03,0.559,0.535,0.409,0.498,0.71,0.439,0.469,0.607,0.473,0.51,0.4,0.627,0.428,0.633
DVSKEYGHLLP [HRC_Y99],0.581,0.76,0.425,0.608,0.551,0.833,0.852,0.801,0.743,0.687,0.656,0.59,0.836,1.09,0.624,0.747
DWLRRYLENGK [HLA-A_Y195_E190D],0.366,0.654,0.211,0.946,0.728,0.708,1.1,0.705,0.723,0.986,1.02,0.864,0.617,1.04,0.642,0.584
DYSLKYATDIP [APC_Y1183],0.536,0.704,0.443,0.565,0.6,0.913,1.35,0.6,0.78,1.25,0.573,0.5,0.571,1.29,0.582,0.736
EAEPYYRSLRD [NPHS1_Y1139],0.791,0.765,0.775,0.594,0.505,0.585,0.929,0.521,0.487,0.785,0.428,0.467,0.601,0.911,0.479,0.709
EDKFMYFEFPQ [PTEN_Y240],0.681,0.745,0.543,0.67,9.1,7.33,1.7,1.11,0.826,2.05,0.421,1.68,2.53,1.27,1.32,0.952
EEEPVYEAEPE [HCLS1_Y360],0.716,0.831,0.542,0.712,0.646,0.84,1.49,0.73,0.664,1.38,0.655,0.72,0.851,1.42,0.765,1.14
EEKKKYYDTKI [CASP5_Y103],0.669,0.698,0.432,0.421,0.468,0.515,0.818,0.4,0.442,0.875,0.465,0.366,0.34,0.853,0.479,0.618

# Now from value to sequence, other results behind:
SH2 binding enrichment (SHP2-C SH2),SH2 binding enrichment (Grb2 SH2),SH2 binding enrichment (c-Src SH2),Sequence,phosphorylation enrichment (EPHB2),phosphorylation enrichment (FGFR1),phosphorylation enrichment (FGFR3),phosphorylation enrichment (AncSZ),phosphorylation enrichment (Hck),phosphorylation enrichment (EPHB1),phosphorylation enrichment (Jak2),phosphorylation enrichment (Fer (mouse)),phosphorylation enrichment (MERTK),phosphorylation enrichment (c-Src),phosphorylation enrichment (Fes),phosphorylation enrichment (Fyn),phosphorylation enrichment (c-Abl (mouse))
0.58,0.813,0.469,DKVFTYIFIME [SCN4A_Y1074],0.695,0.54,1.14,1.32,0.575,0.645,1.35,0.658,0.41,0.533,1.53,0.41,0.968
0.592,0.589,0.404,DLDTDYGSGFP [RNASEH2A_Y206_YF],0.443,0.447,0.588,1.22,0.49,0.585,0.979,0.465,0.38,0.511,0.978,0.45,0.673
0.456,0.725,0.56,DNEALYDTCFR [TUBB2B_Y208_I210T],2.71,0.61,0.888,2.34,6.09,2.85,1.23,8.38,6.63,5.2,1.49,6.81,2.25
0.641,0.739,0.541,DNKALYDICFR [TUBB3_Y208_E205K],2.23,0.612,0.853,1.38,4.34,2.95,1.18,4.5,7.18,3.21,1.26,2.6,1.41
0.702,0.669,0.457,DQLVKHGVNPG [TMPO_Y127_Y127H],0.304,0.329,0.377,0.47,0.386,0.347,0.479,0.284,0.344,0.346,0.467,0.308,0.421
0.559,0.751,0.509,DTYDPYLDVAL [USP36_Y268],0.776,0.742,0.853,1.55,0.846,0.805,1.1,0.661,0.412,1.43,1.32,1.19,0.859
0.592,0.964,0.528,DVFVSYDCGKS [SORL1_Y139_Y141C_YF],0.518,0.485,0.61,0.969,0.592,0.611,1.05,0.521,0.371,0.449,1.04,0.495,0.74
0.589,0.699,0.319,DYGSGYPNDPK [RNASEH2A_Y210],0.625,0.548,0.643,0.86,0.574,0.482,0.93,0.538,0.569,0.575,1.01,0.474,0.778
0.925,1.12,21.8,EADRKYEEVAC [TPM3_Y163_R168C],0.609,0.598,0.777,1.17,0.681,0.622,1.04,0.61,0.545,0.53,1.41,0.574,0.862
0.794,1.08,18,EADRKYEEVAR [TPM3_Y163],0.742,0.637,0.895,1.29,0.663,0.764,1.19,0.712,0.598,0.625,1.46,0.58,1.08
0.556,0.791,0.442,ECKASCPGKIT [PRSS3_Y232_Y232C],0.335,0.404,0.44,0.461,0.351,0.336,0.402,0.453,0.468,0.359,0.536,0.401,0.577
0.679,0.746,0.453,ECKLRYSRKEG [PTPN11_Y263_L262R],0.533,0.484,0.53,0.527,0.503,0.457,0.378,0.376,0.523,0.423,0.606,0.52,0.452
